3 molecules from patent publication US20230012273A1 (Boehringer Ingelheim, published 2023) can be followed below.

For test [1], the target named is T1, cynomolgus SIRPα extracellular domain + His-tag (NP_001271679) (cynomolgus monkey).
T1 construct: also called CySIRPα NP_001271679; cynoSIRPα
T1 chain: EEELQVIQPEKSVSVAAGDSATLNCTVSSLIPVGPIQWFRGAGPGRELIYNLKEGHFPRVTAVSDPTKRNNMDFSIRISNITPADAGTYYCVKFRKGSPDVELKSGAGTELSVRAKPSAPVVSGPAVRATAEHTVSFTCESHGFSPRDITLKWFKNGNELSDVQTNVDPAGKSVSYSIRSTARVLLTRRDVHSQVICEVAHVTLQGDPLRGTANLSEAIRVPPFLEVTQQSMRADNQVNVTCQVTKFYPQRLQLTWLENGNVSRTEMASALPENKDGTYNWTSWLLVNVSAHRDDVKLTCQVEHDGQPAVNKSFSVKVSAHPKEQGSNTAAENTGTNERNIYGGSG
The experiment in a line: SPR, Ab captured, ECD-His analyte. As for the experimental part:
(§1) The binding affinity of anti-SIRPα antibodies to the various SIRPα analytes is determined by surface plasmon resonance (SPR) using a ProteOn XPR36 (Bio-Rad). The running buffer for this experiment and all dilutions (except where stated) are done in 1×HBS-EP+. […] The sensorchip is deactivated with 1M ethanolamine HCl for 420 sec at a flowrate of 10 μl/min.
(§2) The analyte is injected over the captured antibody for 300 sec at a flowrate of 30 μl/min. The dissociation is done for 600 sec. Two-fold serial dilutions of each SIRP protein (Extracellular Domain+His-Tag) are injected as analyte with the highest concentrations indicated in table 36 below.

In test [2] the target is T2, cynomolgus SIRPα extracellular domain + His-tag (EGM_02252) (cynomolgus monkey).
T2 construct: also called CySIRPα EGM_02252; cynoSIRPα
T2 chain: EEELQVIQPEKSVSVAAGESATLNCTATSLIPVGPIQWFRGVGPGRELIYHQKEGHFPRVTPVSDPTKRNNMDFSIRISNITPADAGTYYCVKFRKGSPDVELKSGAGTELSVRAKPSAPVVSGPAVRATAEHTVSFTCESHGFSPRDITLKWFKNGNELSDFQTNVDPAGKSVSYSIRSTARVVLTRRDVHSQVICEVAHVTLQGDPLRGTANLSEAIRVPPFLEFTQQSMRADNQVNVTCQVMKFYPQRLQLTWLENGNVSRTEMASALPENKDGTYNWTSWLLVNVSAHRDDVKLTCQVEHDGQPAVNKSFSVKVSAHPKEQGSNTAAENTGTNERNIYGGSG
In words: SPR, Ab captured, ECD-His analyte. As for the experimental part:
as §1, §2
In general terms: Surface plasmon resonance follows binding to a sensor surface in real time, without labels.

In test [3] the target is T3, cynomolgus SIRPβ1v3 extracellular domain + His-tag (XP_005568593) (cynomolgus monkey).
T3 construct: also called Cyno SIRPβ1v3; cynoSIRPβ1v3
T3 chain: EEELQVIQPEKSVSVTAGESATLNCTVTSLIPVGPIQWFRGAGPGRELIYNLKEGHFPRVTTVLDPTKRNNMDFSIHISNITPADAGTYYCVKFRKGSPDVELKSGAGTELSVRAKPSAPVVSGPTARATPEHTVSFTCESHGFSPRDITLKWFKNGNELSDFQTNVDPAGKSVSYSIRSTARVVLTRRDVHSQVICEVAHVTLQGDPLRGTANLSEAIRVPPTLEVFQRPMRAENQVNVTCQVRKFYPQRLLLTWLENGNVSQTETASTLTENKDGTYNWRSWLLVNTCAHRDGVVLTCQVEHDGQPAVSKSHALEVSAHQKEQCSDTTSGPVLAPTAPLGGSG
The experiment in a line: SPR, Ab captured, ECD-His analyte. As for the experimental part: as §1, §2

The target in test [4] is T4, mouse SIRPα extracellular domain + His-tag (NP_031573) (mouse, UniProt P97797 32-373).
T4 chain: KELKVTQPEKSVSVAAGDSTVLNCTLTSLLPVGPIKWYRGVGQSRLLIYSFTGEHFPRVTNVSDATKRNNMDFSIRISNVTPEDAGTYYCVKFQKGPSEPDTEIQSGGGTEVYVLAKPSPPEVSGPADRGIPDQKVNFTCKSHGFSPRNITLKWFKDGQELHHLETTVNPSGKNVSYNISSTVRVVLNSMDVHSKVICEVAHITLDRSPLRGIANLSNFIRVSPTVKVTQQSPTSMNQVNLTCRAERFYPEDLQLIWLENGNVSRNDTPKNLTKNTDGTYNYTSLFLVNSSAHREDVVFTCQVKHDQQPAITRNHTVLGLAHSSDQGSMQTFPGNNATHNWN
The experiment in a line: SPR, Ab captured, ECD-His analyte. Here is the method:
as §1, §2

In test [5] the target is T5, human SIRPβL/SIRPβ1v3 extracellular domain + His-tag (NP_001129316.1) (human, UniProt Q5TFQ8 30-371).
T5 construct: also called hSIRPβ1v3; HuSIRPβ1v3
The experiment in a line: SPR, Ab captured, ECD-His analyte. An outline of the steps: (§3)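 Steps: chip deactivated with 1M ethanolamine HCl for 420 sec at 10 μl/min; anti-SIRPα antibody captured; two-fold serial dilutions of His-tagged SIRP extracellular domain injected 300 sec at 30 μl/min; dissociation monitored 600 sec. All in 1×HBS-EP+ running buffer.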

For test [6], the target named is T6, human SIRPγ extracellular domain + His-tag (NP_061026.2) (human, UniProt Q9P1W8 29-360).
T6 construct: also called hSIRPγ; HuSIRPγ
The experiment in a line: SPR, Ab captured, ECD-His analyte. An outline of the steps:
as §3

Test [7] deals with T7, human SIRPβ1 extracellular domain + His-tag (NP_006056.2) (human, UniProt O00241 30-371).
T7 construct: also called hSIRPβ1; HuSIRPβ1
In words: SPR, Ab captured, ECD-His analyte. An outline of the steps: as §3

Test [8] concerns the target T8, full-length human SIRPγ (NP_061026.2) on cells (human, UniProt Q9P1W8 29-387).
T8 construct: on CHO and Expi-CHO cells; endogenous on primary human CD3+ T cells; also called γ WT
The experiment in a line: flow cytometry, primary human CD3+ T cells. As for the experimental part: Antibody binding to primary human T cells expressing endogenous SIRPγ is evaluated by flow cytometry. Human peripheral blood mononuclear cells (PBMCs) are blocked with donkey IgG and incubated on ice with increasing concentrations of antibody for 60 minutes, washed and stained with AF647-conjugated donkey F(ab′)₂ anti-human IgG secondary reagent. […] Cells are washed, fixed, and analyzed by flow cytometry. Median fluorescent intensity of CD3+ gated population is determined and used as a measure of antibody binding.
A general note: A flow cytometer gives signals particle by particle.

Test [9] has as its target T9, full-length human SIRPβL (NP_001129316.1) on cells (human, UniProt Q5TFQ8 30-398).
T9 construct: on U937 SIRPα KO cells and Expi-CHO cells; also called βL WT; SIRPβ1v3
In words: flow cytometry, U937 SIRPα KO cells. As for the experimental part:
Antibody binding to cells expressing full-length human SIRPβ1 (NP_006056.2) and SIRPβL (NP_001129316.1) is evaluated by flow cytometry. SIRPβ1- or SIRPβL-expressing U937^{SIRPα KO} cells are blocked with donkey IgG and incubated on ice with increasing concentrations of antibodies for 60 minutes, washed and stained with AF647-conjugated donkey F(ab′)₂ anti-human IgG secondary reagent. Cells are washed, fixed, and analyzed by flow cytometry. Median fluorescent intensity is determined and used as a measure of antibody binding.

Test [10] deals with T10, SIRPαV2 domain 1 (amino acids 31-148) with N-terminal GST tag (human, UniProt Q5TFQ8 30-148).
T10 construct: also called domain 1 of the extracellular domain of human SIRPα-V2
The experiment in a line: crystal structure. As for the experimental part:
Protein was expressed in Origami B(DE3) cells and purified using standard protocols for GST-tagged proteins. Fractions were analyzed by SDS-PAGE and fractions containing the desired protein were pooled and concentrated to 24 mg/ml in 25 mM HEPES; 100 mM NaCl; 5% Glycerin; pH 7,0.

Test [11] deals with T11, cynomolgus SIRPβ1 (XP_005568598) extracellular domain + His-tag (cynomolgus monkey).
T11 construct: SPR analyte; also called Cyno SIRPβ1 XP_005568598; cynoSIRPβ1; not shown: His-tag
T11 chain: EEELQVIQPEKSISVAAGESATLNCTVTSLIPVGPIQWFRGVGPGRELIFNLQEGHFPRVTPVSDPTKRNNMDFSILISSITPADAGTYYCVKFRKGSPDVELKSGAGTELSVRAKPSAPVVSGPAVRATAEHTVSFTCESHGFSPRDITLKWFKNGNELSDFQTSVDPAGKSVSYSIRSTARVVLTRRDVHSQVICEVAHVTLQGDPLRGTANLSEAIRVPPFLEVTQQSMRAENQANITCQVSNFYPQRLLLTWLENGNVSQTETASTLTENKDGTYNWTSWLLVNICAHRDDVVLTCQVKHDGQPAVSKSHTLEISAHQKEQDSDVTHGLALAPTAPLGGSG
The experiment in a line: SPR. As for the experimental part: as §1, §2

In test [12] the target is T12, cynomolgus SIRPα (EGM_02252) extracellular domain + His-tag (cynomolgus monkey).
T12 construct: SPR analyte; also called CySIRPα EGM_02252; cynoSIRPα; not shown: His-tag
T12 chain: T2 chain
In words: SPR. Here is the method:
as §1, §2

In test [13] the target is T13, cynomolgus SIRPγ (XP_005568591) extracellular domain + His-tag (cynomolgus monkey, UniProt Q9P1W8 29-359 (human entry)).
T13 construct: SPR analyte; also called Cyno SIRPγ XP_005568591; cynoSIRPγ; not shown: His-tag
T13 chain: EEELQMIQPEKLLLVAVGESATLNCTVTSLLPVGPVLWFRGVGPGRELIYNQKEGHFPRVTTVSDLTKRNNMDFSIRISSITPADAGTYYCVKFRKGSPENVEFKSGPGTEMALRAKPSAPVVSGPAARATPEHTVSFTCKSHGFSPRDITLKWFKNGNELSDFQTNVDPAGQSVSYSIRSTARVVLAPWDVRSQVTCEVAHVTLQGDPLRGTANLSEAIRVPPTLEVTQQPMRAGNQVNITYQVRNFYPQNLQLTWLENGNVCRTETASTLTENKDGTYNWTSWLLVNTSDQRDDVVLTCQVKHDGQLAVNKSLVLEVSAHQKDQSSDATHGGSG
In words: SPR. As for the experimental part:
as §1, §2

Test [14] addresses T14, cynomolgus SIRPα (NP_001271679) extracellular domain + His-tag (cynomolgus monkey).
T14 construct: SPR analyte; also called CySIRPα NP_001271679; cynoSIRPα; not shown: His-tag
T14 chain: T1 chain
The experiment in a line: SPR, antibody captured, ECD-His analyte. Here is the method:
as §1, §2

Test [15] addresses T15, cynomolgus SIRPβ1v3 (XP_005568593) extracellular domain + His-tag (cynomolgus monkey).
T15 construct: SPR analyte; also called Cyno SIRPβ1v3 XP_005568593; cynoSIRPβ1v3; not shown: His-tag
T15 chain: T3 chain
In words: SPR, antibody captured, ECD-His analyte. As for the experimental part:
as §1, §2

T9 sequence (Q5TFQ8 30-398): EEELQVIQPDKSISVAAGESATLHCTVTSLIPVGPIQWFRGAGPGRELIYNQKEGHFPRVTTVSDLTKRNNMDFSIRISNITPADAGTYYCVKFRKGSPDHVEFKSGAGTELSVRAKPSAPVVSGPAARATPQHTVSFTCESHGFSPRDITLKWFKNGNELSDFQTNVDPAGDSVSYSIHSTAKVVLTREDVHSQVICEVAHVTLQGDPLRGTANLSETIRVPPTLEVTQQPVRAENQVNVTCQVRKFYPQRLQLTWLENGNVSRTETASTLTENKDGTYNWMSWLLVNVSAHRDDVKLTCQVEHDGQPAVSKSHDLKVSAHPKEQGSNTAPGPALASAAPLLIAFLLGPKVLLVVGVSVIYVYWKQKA
T7 sequence (O00241 other isoform, or with tags, fused parts or gaps): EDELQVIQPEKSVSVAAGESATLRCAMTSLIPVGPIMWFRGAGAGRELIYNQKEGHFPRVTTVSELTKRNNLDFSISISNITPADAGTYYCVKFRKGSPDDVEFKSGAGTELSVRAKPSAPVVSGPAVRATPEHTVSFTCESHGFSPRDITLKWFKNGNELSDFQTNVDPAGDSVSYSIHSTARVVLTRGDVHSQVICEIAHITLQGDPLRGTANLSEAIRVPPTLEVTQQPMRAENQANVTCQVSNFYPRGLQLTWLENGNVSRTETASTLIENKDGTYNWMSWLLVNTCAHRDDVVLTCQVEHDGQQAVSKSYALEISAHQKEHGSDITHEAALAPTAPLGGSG
T6 sequence (Q9P1W8 29-360): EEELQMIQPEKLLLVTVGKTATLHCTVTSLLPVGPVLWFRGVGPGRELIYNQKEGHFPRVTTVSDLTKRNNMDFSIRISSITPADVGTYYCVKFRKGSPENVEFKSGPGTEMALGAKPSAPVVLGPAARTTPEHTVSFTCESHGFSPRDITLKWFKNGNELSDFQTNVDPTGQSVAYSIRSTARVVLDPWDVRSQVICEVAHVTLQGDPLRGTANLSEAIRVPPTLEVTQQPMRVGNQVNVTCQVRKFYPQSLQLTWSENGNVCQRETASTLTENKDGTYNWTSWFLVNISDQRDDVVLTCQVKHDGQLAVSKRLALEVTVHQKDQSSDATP
T10 sequence (Q5TFQ8 other isoform, or with tags, fused parts or gaps): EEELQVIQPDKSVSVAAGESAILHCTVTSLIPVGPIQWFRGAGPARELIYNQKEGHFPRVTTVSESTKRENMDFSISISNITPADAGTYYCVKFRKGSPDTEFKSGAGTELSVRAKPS
T5 sequence (Q5TFQ8 other isoform, or with tags, fused parts or gaps): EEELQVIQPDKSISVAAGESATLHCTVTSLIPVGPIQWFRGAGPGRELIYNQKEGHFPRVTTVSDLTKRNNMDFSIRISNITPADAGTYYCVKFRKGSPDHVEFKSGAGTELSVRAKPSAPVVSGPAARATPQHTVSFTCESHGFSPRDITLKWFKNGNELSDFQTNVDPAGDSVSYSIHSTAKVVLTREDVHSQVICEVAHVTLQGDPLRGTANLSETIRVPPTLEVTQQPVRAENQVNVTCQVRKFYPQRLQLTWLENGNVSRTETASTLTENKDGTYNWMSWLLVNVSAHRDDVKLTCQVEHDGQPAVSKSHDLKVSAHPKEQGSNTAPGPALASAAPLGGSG
T8 sequence (Q9P1W8 29-387): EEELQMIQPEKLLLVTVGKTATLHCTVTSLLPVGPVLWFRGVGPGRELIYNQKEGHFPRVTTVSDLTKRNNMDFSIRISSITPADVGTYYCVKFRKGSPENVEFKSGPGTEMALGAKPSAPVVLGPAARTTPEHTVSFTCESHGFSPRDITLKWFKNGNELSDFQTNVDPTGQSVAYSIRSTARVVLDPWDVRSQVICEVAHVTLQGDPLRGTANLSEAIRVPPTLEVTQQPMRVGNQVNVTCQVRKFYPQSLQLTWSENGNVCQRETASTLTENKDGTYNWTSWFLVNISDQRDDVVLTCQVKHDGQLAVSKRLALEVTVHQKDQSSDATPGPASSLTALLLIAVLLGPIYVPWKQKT

B1: Antibody F (antibody, human IgG4 S228P, kappa)
heavy: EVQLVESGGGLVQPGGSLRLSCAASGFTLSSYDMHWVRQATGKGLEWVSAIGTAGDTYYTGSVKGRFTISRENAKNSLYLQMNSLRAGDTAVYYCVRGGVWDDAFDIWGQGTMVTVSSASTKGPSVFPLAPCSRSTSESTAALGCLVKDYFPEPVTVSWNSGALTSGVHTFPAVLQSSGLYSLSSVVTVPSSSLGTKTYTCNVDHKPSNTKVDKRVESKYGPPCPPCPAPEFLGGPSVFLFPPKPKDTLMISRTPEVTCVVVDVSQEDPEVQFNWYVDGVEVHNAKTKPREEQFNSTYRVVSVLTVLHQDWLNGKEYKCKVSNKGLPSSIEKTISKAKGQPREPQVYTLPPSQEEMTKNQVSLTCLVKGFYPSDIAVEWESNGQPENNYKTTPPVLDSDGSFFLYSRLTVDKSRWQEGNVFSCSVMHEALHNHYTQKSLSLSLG
light: DIQMTQSPSSLSASVGDRVTITCRASQDINNYLAWFQQKPGKAPKSLIYTASSLHSGVPSKFSGSGSGTDFTLTISSLQPEDFATYYCQQYVSYPYTFGQGTKLEIKRTVAAPSVFIFPPSDEQLKSGTASVVCLLNNFYPREAKVQWKVDNALQSGNSQESVTEQDSKDSTYSLSSTLTLSKADYEKHKVYACEVTHQGLSSPVTKSFNRGEC
As a reminder, the Kd is the equilibrium constant for the complex coming apart. As to B1, the Kd in test [1] was found to be 506 nM; in test [2], 230 nM; in test [3], 227 nM; in test [7], 84 nM. The binding result is listed as “no binding” in test [4]; “no binding (tested: 100 nM)” in test [5]; “no binding (tested: 1000 nM)” in test [6]; “no binding” in test [8]; “no binding” in test [9].

B2: Fab fragment of Antibody A (Fab, V domains shown)
VH: EVQLVESGGGLVQPGGSLRLSCAASGFTLSSYDMHWVRQATGKGLEWVSAIGTAGDTYYTGSVKGRFTISRENAKNSLYLQMNSLRAGDTAVYYCVRGGVWDDAFDIWGQGTMVTVSS
VL: DIQMTQSPSSLSASVGDRVTITCRASQDINNYLAWFQQKPGKAPKSLIYTASSLHSGVPSKFSGSGSGTDFTLTISSLQPEDFATYYCQQYVSYPYTFGQGTKLEIK
notes: Fab; also called Fab of Antibody A
With B2, the binding result in test [10] was “binds”.

B3: Antibody E16 (antibody, human IgG1, kappa, L234A L235A, V domains shown)
VH: QVQLQESGPGLVRPSETLSLTCTVSGGSIRNYYWSWIRQPPGKGLEWIGFIYYNGRTFYNPSLKSRVTISLDTSKNQFSLKMTSVTAADTAVYYCARVRAYSGIGLDGTDVWGQGTTVTVSS
VL: DIVMTQSPLSLPVTPGEPASISCKSSQSLLYSNAYNYLDWYLQRPGQSPQLLIYLGSNRASGVPDRFSGSGSGTDFTLKISRVEAEDVGVYYCMQALQTPLTFGGGTKVEIKR
Regarding B3, the binding result in [11], in [12] and in test [13] was “no binding (tested: 1000 nM)” each time. Moreover, the results for the Kd in test [14] and in test [15] were 50.3 nM and 30.3 nM, respectively.
